Results as given in US20230407373A1 (priority 2020, published 2023).

System: HCoV-OC43 gRNA and sgRNA
Assay type: binding
Conditions: for target (unweighted spectral count, OC43 Probe II capture): 36 hpi, type n_36_v, tested against no-probe control, FDR<10%; for target (unweighted spectral count, OC43 Probe II) / background (unweighted spectral count, no-probe control): type n_48_v, 48 hpi; for target (unweighted spectral count, OC43 Probe II): OC43 Probe II capture on infected cells; for background (unweighted spectral count, no-probe control): no-probe control on infected cells

B1: SF3B1 (protein, UniProt O75533 1-1304, looked up)
Splicing factor 3B subunit 1: MAKIAKTHEDIEAQIREIQGKKAALDEAQGVGLDSTGYYDQEIYGGSDSRFAGYVTSIAATELEDDDDDYSSSTSLLGQKKPGYHAPVALLNDIPQSTEQYDPFAEHRPPKIADREDEYKKHRRTMIISPERLDPFADGGKTPDPKMNARTYMDVMREQHLTKEEREIRQQLAEKAKAGELKVVNGAAASQPPSKRKRRWDQTADQTPGATPKKLSSWDQAETPGHTPSLRWDETPGRAKGSETPGATPGSKIWDPTPSHTPAGAATPGRGDTPGHATPGHGGATSSARKNRWDETPKTERDTPGHGSGWAETPRTDRGGDSIGETPTPGASKRKSRWDETPASQMGGSTPVLTPGKTPIGTPAMNMATPTPGHIMSMTPEQLQAWRWEREIDERNRPLSDEELDAMFPEGYKVLPPPAGYVPIRTPARKLTATPTPLGGMTGFHMQTEDRTMKSVNDQPSGNLPFLKPDDIQYFDKLLVDVDESTLSPEEQKERKIMKLLLKIKNGTPPMRKAALRQITDKAREFGAGPLFNQILPLLMSPTLEDQERHLLVKVIDRILYKLDDLVRPYVHKILVVIEPLLIDEDYYARVEGREIISNLAKAAGLATMISTMRPDIDNMDEYVRNTTARAFAVVASALGIPSLLPFLKAVCKSKKSWQARHTGIKIVQQIAILMGCAILPHLRSLVEIIEHGLVDEQQKVRTISALAIAALAEAATPYGIESFDSVLKPLWKGIRQHRGKGLAAFLKAIGYLIPLMDAEYANYYTREVMLILIREFQSPDEEMKKIVLKVVKQCCGTDGVEANYIKTEILPPFFKHFWQHRMALDRRNYRQLVDTTVELANKVGAAEIISRIVDDLKDEAEQYRKMVMETIEKIMGNLGAADIDHKLEEQLIDGILYAFQEQTTEDSVMLNGFGTVVNALGKRVKPYLPQICGTVLWRLNNKSAKVRQQAADLISRTAVVMKTCQEEKLMGHLGVVLYEYLGEEYPEVLGSILGALKAIVNVIGMHKMTPPIKDLLPRLTPILKNRHEKVQENCIDLVGRIADRGAEYVSAREWMRICFELLELLKAHKKAIRRATVNTFGYIAKAIGPHDVLATLLNNLKVQERQNRVCTTVAIAIVAETCSPFTVLPALMNEYRVPELNVQNGVLKSLSFLFEYIGEMGKDYIYAVTPLLEDALMDRDLVHRQTASAVVQHMSLGVYGFGCEDSLNHLLNYVWPNVFETSPHVIQAVMGALEGLRVAIGPCRMLQYCLQGLFHPARKVRDVYWKIYNSIYIGSQDALIAHYPRIYNDDKNTYIRYELDYIL
target (unweighted spectral count, OC43 Probe II capture): 6

B2: NHP2 (protein, UniProt Q9NX24 1-153, looked up)
H/ACA ribonucleoprotein …: MTKIKADPDGPEAQAEACSGERTYQELLVNQNPIAQPLASRRLTRKLYKCIKKAVKQKQIRRGVKEVQKFVNKGEKGIMVLAGDTLPIEVYCHLPVMCEDRNLPYVYIPSKTDLGAAAGSKRPTCVIMVKPHEEYQEAYDECLEEVQSLPLPL
target (unweighted spectral count, OC43 Probe II capture): 6 | target (unweighted spectral count, OC43 Probe II): 6 | background (unweighted spectral count, no-probe control): 1

B3: SNX13 (protein, UniProt Q9Y5W8 1-968, looked up)
Sorting nexin-13: MLTEASLSIWGWGSLGIVLFLITFGPFVIFYLTFYILCFVGGGLVVTLLFGKTNSEKYLEQCEHSFLPPTSPGVPKCLEEMKREARTIKIDRRLTGANIIDEPLQQVIQFSLRDYVQYWYYTLSDDESFLLEIRQTLQNALIQFATRSKEIDWQPYFTTRIVDDFGTHLRVFRKAQQKITEKDDQVKGTAEDLVDTFFEVEVEMEKEVCRDLVCTSPKDEEGFLRDLCEVLLYLLLPPGDFQNKIMRYFVREILARGILLPLINQLSDPDYINQYVIWMIRDSNCNYEAFMNIIKLSDNIGELEAVRDKAAEELQYLRSLDTAGDDINTIKNQINSLLFVKKVCDSRIQRLQSGKEINTVKLAANFGKLCTVPLDSILVDNVALQFFMDYMQQTGGQAHLFFWMTVEGYRVTAQQQLEVLLSRQRDGKHQTNQTKGLLRAAAVGIYEQYLSEKASPRVTVDDYLVAKLADTLNHEDPTPEIFDDIQRKVYELMLRDERFYPSFRQNALYVRMLAELDMLKDPSFRGSDDGDGESFNGSPTGSINLSLDDLSNVSSDDSVQLHAYISDTVYADYDPYAVAGVCNDHGKTYALYAITVHRRNLNSEEMWKTYRRYSDFHDFHMRITEQFESLSSILKLPGKKTFNNMDRDFLEKRKKDLNAYLQLLLAPEMMKASPALAHYVYDFLENKAYSKGKGDFARKMDTFVNPLRNSMRNVSNAVKSLPDSLAEGMTKMSDNMGKMSERLGQDIKQSFFKVPPLIPKTDSDPEHRRVSAQLDDNVDDNIPLRVMLLLMDEVFDLKERNQWLRRNIKNLLQQLIRATYGDTINRKIVDHVDWMTSPEQVADSVKRFRDAFWPNGILAEAVPCRDKSIRMRTRVAGKTKLLAIMPDELKHIIGAETTRKGILRVFEMFQHNQLNRRMVYVFLEGFLETLFPQYKFRELFNKLHSRSKQMQKYKQKLQTTQAPSLQKR
target (unweighted spectral count, OC43 Probe II capture): 5

B4: PATL1 (protein, UniProt Q86TB9 1-770, looked up)
Protein PAT1 homolog 1: MFRYESLEDCPLDEDEDAFQGLGEEDEEIDQFNDDTFGSGAVDDDWQEAHERLAELEEKLPVAVNEQTGNGERDEMDLLGDHEENLAERLSKMVIENELEDPAIMRAVQTRPVLQPQPGSLNSSIWDGSEVLRRIRGPLLAQEMPTVSVLEYALPQRPPQGPEDDRDLSERALPRRSTSPIIGSPPVRAVPIGTPPKQMAVPSFTQQILCPKPVHVRPPMPPRYPAPYGERMSPNQLCSVPNSSLLGHPFPPSVPPVLSPLQRAQLLGGAQLQPGRMSPSQFARVPGFVGSPLAAMNPKLLQGRVGQMLPPAPGFRAFFSAPPSATPPPQQHPPGPGPHLQNLRSQAPMFRPDTTHLHPQHRRLLHQRQQQNRSQHRNLNGAGDRGSHRSSHQDHLRKDPYANLMLQREKDWVSKIQMMQLQSTDPYLDDFYYQNYFEKLEKLSAAEEIQGDGPKKERTKLITPQVAKLEHAYKPVQFEGSLGKLTVSSVNNPRKMIDAVVTSRSEDDETKEKQVRDKRRKTLVIIEKTYSLLLDVEDYERRYLLSLEEERPALMDDRKHKICSMYDNLRGKLPGQERPSDDHFVQIMCIRKGKRMVARILPFLSTEQAADILMTTARNLPFLIKKDAQDEVLPCLLSPFSLLLYHLPSVSITSLLRQLMNLPQSAATPALSNPHLTAVLQNKFGLSLLLILLSRGEDLQSSDPATESTQNNQWTEVMFMATRELLRIPQAALAKPISIPTNLVSLFSRYVDRQKLNLLETKLQLVQGIR
target (unweighted spectral count, OC43 Probe II capture): 6

B5: TRIM28 (protein, UniProt Q13263 2-835, looked up)
Transcription intermediary …: AASAAAASAAAASAASGSPGPGEGSAGGEKRSTAPSAAASASASAAASSPAGGGAEALELLEHCGVCRERLRPEREPRLLPCLHSACSACLGPAAPAAANSSGDGGAAGDGTVVDCPVCKQQCFSKDIVENYFMRDSGSKAATDAQDANQCCTSCEDNAPATSYCVECSEPLCETCVEAHQRVKYTKDHTVRSTGPAKSRDGERTVYCNVHKHEPLVLFCESCDTLTCRDCQLNAHKDHQYQFLEDAVRNQRKLLASLVKRLGDKHATLQKSTKEVRSSIRQVSDVQKRVQVDVKMAILQIMKELNKRGRVLVNDAQKVTEGQQERLERQHWTMTKIQKHQEHILRFASWALESDNNTALLLSKKLIYFQLHRALKMIVDPVEPHGEMKFQWDLNAWTKSAEAFGKIVAERPGTNSTGPAPMAPPRAPGPLSKQGSGSSQPMEVQEGYGFGSGDDPYSSAEPHVSGVKRSRSGEGEVSGLMRKVPRVSLERLDLDLTADSQPPVFKVFPGSTTEDYNLIVIERGAAAAATGQPGTAPAGTPGAPPLAGMAIVKEEETEAAIGAPPTATEGPETKPVLMALAEGPGAEGPRLASPSGSTSSGLEVVAPEGTSAPGGGPGTLDDSATICRVCQKPGDLVMCNQCEFCFHLDCHLPALQDVPGEEWSCSLCHVLPDLKEEDGSLSLDGADSTGVVAKLSPANQRKCERVLLALFCHEPCRPLHQLATDSTFSLDQPGGTLDLTLIRARLQEKLSPPYSSPQEFAQDVGRMFKQFNKLTEDKADVQSIIGLQRFFETRMNEAFGDTKFSAVLVEPPPMSLPGAGLSSQELSGGPGDGP
target (unweighted spectral count, OC43 Probe II capture): 13 | target (unweighted spectral count, OC43 Probe II): 6 | background (unweighted spectral count, no-probe control): 1
